In a protein production outcome set (Wang et al. 2014):

Assay: label from the status in PepcDB records
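Further: failed if final PepcDB status was selected cloned or expressed and not failed if soluble or beyond.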

Sequence | protein production
MGLVVSARSVSPLKKWPSRVRSFSINMGQPKSGQGWKLGACCPANRHNRERTRSCAPAGLTCLRPAPAPWACLGLDLCPSLGLDLGPSLGLALRSGPAEETMDPAGRARGQGATAGGLLLRAAAAAKGLREDLWGAAALPWRSLSRIPKREGLGEEDTAVAGHELRESRDEVSENQAAGRAGSKGLEKVPRAAPPDAAGGKLARRLSPGTPSPSLHRCTPLLPNERSFQNAAKSNNLDLMEKLFEKKVNINVVNNMNRTALHFAVGRNHLSAVDFLLKHKARVDVADKHGLTVIHLAAWSGSLEVMLMLVKAGADQRAKNQDGMSALHFATQSNHVRIVEYLIQDLHLKDLNQPDEKGRKPFLLAAERGHVEMIEKLTFLNLHTSEKDKIQWSTLWTAALTKMKTSRNSIAALTIEGACSPGTGVSTSSVSLLQGGNTALHLAAKHGHSPAVQVLLAQWQDINEMNELNISSLQIATRNGHASLVNFLLSENVDLHQKVEPKESPLHLVVINNHITVVNSLLSAQHDIDILNQKQQTPLHVAADRGNVELVETLLKAGCDLKAVDKQGKTALAVASRSNHSLVVGMLIKAERYYAWREEHHESIRDPSTGFTLTFKQDHSLETRHIRTLLWDLAYHQLKANEWQRLARSWNFTDDQIRAIEEQWSDENLGNIESLLGINQLISFENNEANMFLGKVFYSEHCPLMDILRREGVLAQGSICIRDCWELGMAEAQSMSTHYLYHIQEAVYRNIILTSYSPSVVLAVAHTEYGTMEGACKLSAASPLGNDPVNTGYSLAWQFCVIPLLSI | failed
MSDEQHDSVWPPPGLDFSKPTIARVYDALLGGKDNFEADRALADYACKHIPGLKESAIENRKVLVRGVRFLAGEAGISQFLDLGSGLPTVQNTHEVAQSVNPDARVVYVDIDPMVLTHGRALLAKDPNTAVFTADVRDPEYILNHPDVRRMIDFSRPAAIMLVGMLHYLSPDVVDRVVGAYRDALAPGSYLFMTSLVDTGLPAQQKLARITRENLGEGWARTPEEIERQFGDFELVEPGVVYTALWRPDEPVDPDNLSPGEQLGMAGIGRKKA | not failed
MTPRHQRDLSRRKLLAALAGTAVAVPAAAMGAPHALATVASDNGGAAPRAAGALPLTIVNRTGSFANSSVHLYIVGNEDGKQVRVTSEGTLAPISLADNGADGFTDYAIALSGSGETRLSLPYMSGRIYVALGDKLKLKAVADGNGNAALQYPAGWVESDPNYRVLHDCAEFTHNSAGMFCNTTMVDMFSVPLSIRLTGTKDQTTGTLRDGGRARVFAAVKSVPEFERLVVDDLRVIAPGHGLDAGIFAEDYFAPYIDEVWSTYTGKDLTVTTNAGAFTGRVRGDKLTFTGPASVSFSKPSTRDVFFCDGSLAAPNDGTTGPVAAVLGAGFNRSTLVNDSAQPTTDPAAFYGSALANHYAKAIHAATEDGKAYGFAFDDVADFASYIQDTAPTGINLTLTPF | failed
MFTHLDENQQPRMVDISQKVAGDRRAVAQCIVQLPKAIKDYLTGQEIFLKKGPVIQTAIIAGTMAVKKTADLIPFCHTLPIHGCKFDINIVYQKRDYLEIFLQCAVNTNYKTGVEMEALCGVSVAALTIYDMCKSISSEIIIKNTKLIEKTGGKADVSQTPLYGLVLTGGKSRRMGKDKALINYQGQPHGQYIYDLLAKYCEQVFLSARPSQWQGTPLENLPTLVDRGESVGPMSGILTALQSYPGVNWLIIACDLAYINSTMVEKLIAQARQDLVATCYENADQGFPEALCGFYTPLALQLFTKAQNIGLHCPVKILQMADCQLIKPDNLFDIANINSPEDYGQINLEHHHHHH | not failed
MLDVAIIGGGPAGLSAGLYATRGGLKNVVMFEKGMPGGQITSSSEIENYPGVAQVMDGISFMAPWSEQCMRFGLKHEMVGVEQILKNSDGSFTIKLEGGKTELAKAVIVCTGSAPKKAGFKGEDEFFGKGVSTCATCDGFFYKNKEVAVLGGGDTALEEALYLANICSKIYLIHRRDEFRAAPSTVEKVKKNEKIELITSASVDEVYGDKMGVAGVKVKLKDGSIRDLNVPGIFTFVGLNVRNEILKQDDSKFLCNMEEGGQVSVDLKMQTSVAGLFAAGDLRKDAPKQVICAAGDGAVAALSAMAYIESLH | not failed
MSDWADLMNDLNKLQHSDAVTTAWQFTEQVPHGRDLGMQVVSVDQGQVCMRLTPQSWMFAHKDTKEICTSVLYSLADSAGGLAVFAGALELMPIATLDLRMDYLRPAIGDRALSAVATCRHLSDDVAFIHCDILSEGNRELLATANATFMRNTQGQQLHAGGPGKESA | failed
MQTVKYLARNSGFLFLNGIATNILSFFAMLYIARHLGPEDYGIFSFAFAFIYFFSFIPDMGVHQILVREAAKEPGKAGKLIGNGTIIKFFLSFVAIILAFILINLIGFPSSTKNALYIASLGLLISGTGAYGIIYEAKLRMEYSLLFNLVSRVCLLLFVFLAVAINSTLNTFIFASVSATFVHNLLMVLFSKKLVKVSFNPDITLIKQLLREAIPIAIASVFTVVYFKIDVLMLSFLRGDAEVGFYSAAYRLTDALVFLPSAFTTSTFPLMSRYFKESFNSFSFAYARTFKYLFASGLLIAVLVTFASEKIILIFYGPEYQNSVIALQILIWATAITFISVLISSTCVSSGNQQIISKTAILAALLNVSLNLILIPSTGYIGAAVATVLSVLGSMVFGLIWVHKNLLHENPLKGTISPIIGAGVVSLFIILLEPYADIMFLSAVSVPLFAAVLYTTGWIDSDDKTIFLKLFPASRLNSKKF | failed
MRPTPYLAPIPVRGRISRPQPKGLPVINMGYNELPYPPLPAIRAAMEETAERAQSYGSPHCDALRDALGAAHGLDPEQIVCGNGSEELLDVIARCFARPGDEILISEFGYIQFALTANRVGATLVKARERDNTSDVDALLAAVSEHTRLLFLANPNNPTGTMLEIDELSRLARDLPAQVVLVLDLAYGEFAAPDYCAAVHSLAANHENIVVTRTFSKAYGLAGARVGWCHAPAWMVPVLYAARGMGTVNALAQAGAVAGLADPAAIQERVDEIVSERARLTGALGQLGLVVTPSRTNFLMARFREGDAARTEALVEHLFEDAGIVVNRTREAGLEAFFRFSLSLPAHNDLLLDSIRRFIGQG | failed
MSRRTVSLTVLALVLALLILVAPDVLLVIFAGVLFGVFLSAGGGLVQRVTGLQRGAGIALFIVLVLLALTGAFLAFAPAMFEQADALARQLPPAFEDLRDRISAYSWGPTLLSRLAPSRLLSSDGGFASTAVSATFGALGNVVIILFIGLYTAVDPGLYRRGLRALLAPPLRPRGDEVLAIADGTLRGWLGGQIISMTVVGVLTWLGLWLIGIPLAFILGLIAALLTFIPNIGPVLSAVPALLLALPEGAEQVGLVLAVFLTVQTFESYLVTPLIQKERVALPPALIISAQLLMGVLFGLMGLLLATPLAALALALVREVYVHDYLEEGPAKAQGPDRAD | failed
MIKPTPVAGTSLDRVDGVAKVTGQARYAGEYPEVGLLHGSVVSSTIARGRVLNIDSTQAMRVPGVIAVLDHGHRPHISSYDDDYSDADAAQGAPFRPLFDDRVLYNGQPLALVVAQTLELARYAGSLIRIEYAEEAHQTDLGACQQSHAAPAETPPPRGDFAAQFARAPVQVDATYLTANEYHNPMEPHASTVLYKGDGTLEIHDKTQGTQNCQDYLHKVFGLPKANIRVRAAFVGGAFGSGLRPQYQLPLAVMAALHLQRSVRVTLTRQQMFTFGYRPRTEQRLRLGADANGQLLAIAHDALGQTSRFEDFTEHVVEWSGMLYQCDNVALSYRLASLDVYTPLDMRAPGAASGMIALECAMDELACAAQIDPLDLRRRNFAASNANEGKPYSSKELLTCYRQGAERFGWQNRNPQPRSMRHGNQLVGWGMAGGVWEAMQMKASAKARFDAQGHLTVSSATTDIGTGTYTVMTQIAADAAGARVQDVTFVLGDSSLPTAPLQGGSFTVSSVGSAVRQACQVLRTKVLEHARRMYPQVASTAREQIIFADGYLHAGSHRLALADIIASAPEGEFEVQIDAEPGARRQPFSTATHSAVFAEVHVDEDLGTIKVVRVVSAVAAGRVINPKTARSQILGGVVWGVGMALHEAALTDHRLGRIVNHNLAEYHIPVNADSGDIEVIFVEEHDDIVNELGSKGVGEIGVVGVAAAVANAVYHATGKRVREFPITLDKLLKDNSQV | failed
MSLSLYYKKIREQLGHELIFMPSVAAVIKNEQGELLFQYPGGEYWSLPAGAIEPGETPEEAVIREVWEETGLKVQVKKQKGVFGGKEFRYTYANGDKVEYIVVVFECEITSGKLKSIDGESLKLQYFSFSEKPPLALPYPDKIFLEGHHHHHH | not failed
INYYDTYIKTCLDNLKRKNTRRSIKLDGKGEPKGAKRAKPVKYTAAKLHEKGVLLDIDDLQTNQFKNVTFDIIATEDVGIFDVRSKFLGVEMEKVQLNIQDLLQMQYEGVAVMKMFDKVKVNVNLLIYLLNKKFYGK | failed
MFSPEQIAGKDVRLLRIKKEGSLDLALEGGVDSPVGKVVVSAVYEGGAAERHGGVVKGDEIMAINGKIVTDYTLAEAEAALQKAWNQGGDWIDLVVAVCPPKEYDDELTFF | not failed
MKVVPEKNAVRILWGRERGTRAMGAQRLLQELVEDKTRWMKWEGKRVELPDSPRSTFLLAFSPDRTLLASTHVNHNIYITEVKTGKCVHSLIGHRRTPWCVTFHPTISGLIASGCLDGEVRIWDLHGGSESWFTDSNNAIASLAFHPTAQLLLIATANEIHFWDWSRREPFAVVKTASEMERVRLVRFDPLGHYLLTAIVNPSNQQGDDEPEIPIDGTELSHYRQRALLQSQPVRRTPLLHNFLHMLSSRSSGIQVGEQSTVQDSATPSPPPPPPQPSTERPRTSAYIRLRQRVSYPTTVECCQHPGILCLCSRCAGTRVPSLLPHQDSVPPASARATTPSFSFVQTEPFHPPEQASSTQQDQGLLNRPSAFSTVQSSTAGNTLRNLSLGPTRRSLGGPLSSHPSRYHRELAPGLTGSEWTRTVLTLNSRSEVESMPPPRTSASSVSLLSVLRQQEGGSQASVYTSATEGRGFPSSGLATESDGGNGSSQNNSGNIRHELQCDLRRFFLEYDRLQELDQSLSGETPQTQQAQEMLNNNIESERPGPSHQPTPHSSENNSNLSRGHLNRCRACHNLLTFNNDTLRWERTTPNYSSGEASSSWHVSTTFEGMPPSGNQLPPLERTEGQMPNSSRLELSSSASSQEERTVGVAFNQETGHWERIYTQSSRSGTVSQEALHQDMPEESSEEDSLRRRLLESSLISLSRYDGAGSREHPIYPDPARLSPAAYYAQRMIQYLSRRDSIRQRSMRYQQNRLRSSTSSSSSDNQGPSVEGTDLEFEDFEDNGDRSRHRAPRNARMSAPSLGRFVPRRFLLPEYLPYAGIFHERGQPGLATHSSVNRVLAGAVIGDGQSAVASNIANTTYRLQWWDFTKFDLPEISNASVNVLVQNCKIYNDASCDISADGQLLAAFIPSSQRGFPDEGILAVYSLAPHNLGEMLYTKRFGKG | failed
MENINFFIVFIEGILSIFSPCILPILPIYLSMLSNSSVEDIRDSNFKSGVLIRNTLFFTLGISTTFFILGSSISALSSFFNTNKNIIMILGGVIILFMGLFYLGVINLNILNREKRLNFKYKNMSPLSAFVLGFTFSFGWTPCIGPILASVLVMASSSKNLLMSNLLILVYTIGFILPFIIASLFYGKLFKKFDGIKKHMDLIKKISGIFIIIAGLIMLVGGIRNMNNEIKINNNPQINKSESANKDSKNESDNKKQEEGNKIPPIDFTLYDQYGNKHTLSEYKGKTIFLNFWATWCPPCRGEMPYIDELYKEYNENKDDVVILGVASPNLGREGSEEHIKNFLKEENHVFPVVLDENGAMVYQYGINAFPSTFIINKEGYITKYIPGAMTKETMKTLIESER | failed
MIYPDETMLYAPVEWHDCSEGYTDIRYEKSTDGIAKITINRPQVRNAFRPLTVKEMIQALADARYDDNVGVIILTGEGDKAFCAGGDQKVRGDYGGYQDDSGVHHLNVLDFQRQIRTCPKPVVAMVAGYSIGGGHVLHMMCDLTIAAENAIFGQTGPKVGSFDGGWGASYMARIVGQKKAREIWFLCRQYDAQQALDMGLVNTVVPLADLEKETVRWCREMLQNSPMALRCLKAALNADCDGQAGLQELAGNATMLFYMTEEGQEGRNAFNQKRQPDFSKFKRNP | not failed
